According to patent US20120027782A1 (Bristol-Myers Squibb, published 2012):
Positions count from the first letter of the chain named.

T1: human PTK7, full length, on the cell surface (human, UniProt Q13308 31-1070)
T1 sequence: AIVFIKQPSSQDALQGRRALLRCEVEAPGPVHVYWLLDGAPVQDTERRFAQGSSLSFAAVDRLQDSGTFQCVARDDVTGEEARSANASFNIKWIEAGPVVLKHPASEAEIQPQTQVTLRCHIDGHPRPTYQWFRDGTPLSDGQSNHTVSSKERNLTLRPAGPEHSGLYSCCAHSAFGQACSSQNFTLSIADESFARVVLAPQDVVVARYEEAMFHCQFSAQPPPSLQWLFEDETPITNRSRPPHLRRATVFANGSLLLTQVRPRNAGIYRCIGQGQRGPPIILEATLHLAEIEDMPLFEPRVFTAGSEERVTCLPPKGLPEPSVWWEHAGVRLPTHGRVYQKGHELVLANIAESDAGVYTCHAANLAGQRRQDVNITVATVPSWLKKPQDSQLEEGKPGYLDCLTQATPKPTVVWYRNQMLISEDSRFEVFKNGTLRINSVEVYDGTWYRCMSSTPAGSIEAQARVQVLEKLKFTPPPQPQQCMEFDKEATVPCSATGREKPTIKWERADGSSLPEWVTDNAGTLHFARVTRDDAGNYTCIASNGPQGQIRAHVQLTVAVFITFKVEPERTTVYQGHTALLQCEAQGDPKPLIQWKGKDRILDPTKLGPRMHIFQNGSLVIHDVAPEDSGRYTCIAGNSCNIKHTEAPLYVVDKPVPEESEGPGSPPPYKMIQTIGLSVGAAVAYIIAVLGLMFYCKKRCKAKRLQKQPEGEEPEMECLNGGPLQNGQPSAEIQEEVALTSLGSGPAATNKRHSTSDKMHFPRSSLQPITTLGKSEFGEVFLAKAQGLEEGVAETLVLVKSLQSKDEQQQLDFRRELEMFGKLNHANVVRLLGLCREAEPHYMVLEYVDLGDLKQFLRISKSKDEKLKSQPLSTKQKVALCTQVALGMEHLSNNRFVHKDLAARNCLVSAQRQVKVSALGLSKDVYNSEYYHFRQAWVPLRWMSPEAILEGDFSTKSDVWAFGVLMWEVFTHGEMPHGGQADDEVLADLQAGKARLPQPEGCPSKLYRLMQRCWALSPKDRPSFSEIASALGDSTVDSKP

T2: recombinant extracellular domain of PTK7 (human, UniProt Q13308 31-704)
T2 construct: also called PTK7 extracellular domain
T2 sequence: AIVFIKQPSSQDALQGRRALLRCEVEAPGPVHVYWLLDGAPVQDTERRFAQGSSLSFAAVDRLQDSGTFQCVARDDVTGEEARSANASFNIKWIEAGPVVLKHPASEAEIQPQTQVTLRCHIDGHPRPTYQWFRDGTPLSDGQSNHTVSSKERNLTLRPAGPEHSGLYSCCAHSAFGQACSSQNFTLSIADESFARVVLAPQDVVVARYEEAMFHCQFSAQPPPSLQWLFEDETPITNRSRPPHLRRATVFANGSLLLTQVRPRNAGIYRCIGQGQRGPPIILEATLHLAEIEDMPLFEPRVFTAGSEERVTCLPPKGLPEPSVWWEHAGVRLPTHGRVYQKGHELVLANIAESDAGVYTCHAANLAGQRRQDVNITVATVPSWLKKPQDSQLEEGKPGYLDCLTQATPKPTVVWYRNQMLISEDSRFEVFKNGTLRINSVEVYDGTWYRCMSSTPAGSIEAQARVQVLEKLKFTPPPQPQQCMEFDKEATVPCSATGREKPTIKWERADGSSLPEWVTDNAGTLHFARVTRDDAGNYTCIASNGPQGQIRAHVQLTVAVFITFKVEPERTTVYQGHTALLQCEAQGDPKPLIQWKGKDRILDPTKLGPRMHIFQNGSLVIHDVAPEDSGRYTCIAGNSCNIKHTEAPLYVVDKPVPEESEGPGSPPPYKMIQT

B1: anti-PTK7 human monoclonal antibody 4D5 (antibody, V domains shown)
VH: QVQLVESGGGVVQPGRSLRLSCAASGFTFSSYAFHWVRQAPGKGLEWVAVISYDGSIKYYADSVKGRFTISRDNSKNTLYLQMNSLRAEDTAVYYCARTYYFDYWGQGTLVTVSS
VL: EIVLTQSPDFQSVTPKEKVTITCRASQSIGSSLHWYQQKPDQSPKLLIKYASQSFSGVPSRFSGSGSGTDFTLTINSLEAEDAAAYYCHQSSSLPITFGQGTRLEIK
B2: anti-PTK7 human monoclonal antibody 12C6 (antibody, V domains shown)
VH: EVQLVQSGGGLVHPGGSLRLSCAGSGFTFSTYLMYWVRQAPGKTLEWVSAIGSGGDTYYADSVKGRFTISRDNAKNSLYLQMNSLRAEDMAVYYCARGLGYWGQGTLVTVSS
VL: not shown
notes: Human IgG kappa from a hybridoma
B3: anti-PTK7 human monoclonal antibody 7C8 (antibody, V domains shown)
VH: QVQLVESGGGVVQPGRSLRLSCAASGFTFSSYGMHWVRQAPGKGLEWVAVIWDDGSNKYYVDSVKGRFTISRDNSKNTLYLQMNSLRAEDTAVYYCARDDYYGSGSFNSYYGTDVWGQGTTVTVSS
VL: EIVLTQSPATLSLSPGERATLSCRASQSVSIYLAWYQQKPGQAPRLLIYDASNRATGIPARFSGSGSGTDFTLTISSLEPEDFAVYYCQQRSNWPPFTFGPGTKVDIK
notes: as for B2
B4: anti-PTK7 human monoclonal antibody 3G8 (antibody, V domains shown)
VH: QVQLVESGGGVVQPGRSLRLSCAASGFIFSNYAMHWVRQAPGKGLEWVAVISYDGNNKYYADSVKGRFTISRDNSKNTLYLQMNSLRAEDTAVYYCAREVWSIDNWGQGTLVTVSS
VL: DIQMTQSPSSLSASVGDRVTITCRASQGISSWLAWYQQKPEKAPKSLIYAASSLQSGVPSRFSGSGSGTDFTLTISSLQPEDFATYYCQQYNSYPRTFGQGTKVEIK
B5: anti-PTK7 human monoclonal antibody 12C6a (antibody, V domains shown)
VH: B2 VH
VL: B4 VL with R96Y, V104L
notes: Same heavy chain variable region as 12C6, different light chain; Human IgG kappa from a hybridoma

Experiments:
[1] = target: T1, human PTK7, full length, on the cell …; experiment: cell-based or functional assay
[2] = target: T1, human PTK7, full length, on the cell …; experiment: flow cytometry (MFI) on Wilms' tumor cell line G-401
Procedure: The nephroblastoma Wilms' tumor cell line G-401 (ATCC Acc No. CRL-1441) was tested for binding of the HuMAb anti-PTK7 human monoclonal antibodies 12C6 and 7C8 at different concentrations. Binding of the anti-PTK7 human monoclonal antibodies was assessed by incubating 1×10⁵ cells with antibody at a starting concentration of 30 μg/ml and serially diluting the antibody at a 1:10 dilution. The cells were washed and binding was detected with a PE-labeled anti-human IgG Ab. Flow cytometric analyses were performed using a FACScan flow cytometry (Becton Dickinson, San Jose, Calif.). The anti-PTK7 monoclonal antibodies 12C6 and 7C8 bound to the nephroblastoma Wilms' tumor cell line in a concentration dependent manner, as measured by the mean fluorescent intensity (MFI) of staining. The EC₅₀ values for the anti-PTK7 monoclonal antibodies 12C6 and 7C8 was 4.0 nM and 3.4 nM, respectively.

[3] = target: T1, human PTK7, full length, on the cell …; experiment: flow cytometry (MFI) on cancer cell lines that express cell surface PTK7, antibody at 10 ug/ml
Procedure: Anti-PTK7 antibodies were tested for binding to a variety of cancer cell lines by flow cytometry.
Binding of the 3G8, 12C6a, 4D5 and 12C6 anti-PTK7 human monoclonal antibodies to a panel of cancer cell lines was assessed by incubating cancer cell lines with anti-PTK7 human monoclonal antibodies at a concentration of 10 μg/ml. The cancer cell lines that were tested were A-431 (ATCC Acc No. CRL-1555), Wilms tumor cells G-401 (ATCC Acc No. CRL-1441), Saos-2 (ATCC Acc No. HTB-85), SKOV-3 (ATCC Acc No. HTB-77), PC3 (ATCC Acc No. CRL-1435), DMS 114 (ATCC Acc No. CRL-2066), ACHN (ATCC Ace No. CRL-1611), LNCaP (ATCC Acc No. CRL-1740), DU 145 (ATCC Acc No. HTB-81), LoVo (ATCC Acc No. CCL-229) and MIA PaCa-2 (ATCC Acc No. CRL-1420). An isotype control antibody was used as a negative control. The cells were washed and binding was detected with a FITC-labeled anti-human IgG Ab. Flow cytometric analyses were performed using a FACScan flow cytometry (Becton Dickinson, San Jose, Calif.). The anti-PTK7 monoclonal antibodies 3G8, 12C6a, 4D5 and 12C6 bound to the cancer cell lines A-431, Wilms tumor cells G-401, Saos-2, SKOV-3, PC3, DMS 114, ACHN, LNCaP, DU 145, LoVo and MIA PaCa-2, as measured by the mean fluorescent intensity (MFI) of staining.

[4] = target: T2, recombinant extracellular domain of PTK7; experiment: ELISA (legend of FIG. 15; members named in paragraph 547)
Procedure: The binding of anti-PTK7 antibodies was also assessed by standard ELISA to examine the specificity of binding for PTK7.
Recombinant extracellular domain of PTK7 was tested for binding against the anti-PTK7 human monoclonal antibodies 3G8, 4D5, 12C6 and 12C6a at different concentrations. Standard ELISA procedures were performed. The anti-PTK7 human monoclonal antibodies were added at a starting concentration of 10 μg/ml and serially diluted at a 1:2 dilution. Goat-anti-human IgG (kappa chain-specific) polyclonal antibody conjugated with horseradish peroxidase (HRP) was used as secondary antibody. Each of the anti-PTK7 human monoclonal antibodies 3G8, 4D5, 12C6 and 12C6a bound to PTK7.

Row | EC50 of the decrease in 3H-thymidine incorporation, Hum-Zap internalization assay, Wilms' tumor cells G-401 [1] | EC50 of the decrease in 3H-thymidine incorporation, Hum-Zap internalization assay, A-431 cells [1] | EC50 of the decrease in 3H-thymidine incorporation, Hum-Zap internalization assay, PC3 tumor cells [1] | EC50 [2] | binding result [3] | binding result [4] | Binder
1 | 0.3 nM | – | – | – | – | – | B1
2 | 0.2 nM | 0.2 nM | 0.3 nM | 4 nM | – | – | B2
3 | 0.2 nM | 0.2 nM | 0.3 nM | 3.4 nM | – | – | B3
4 | 0.6 nM | – | – | – | – | – | B4
5 | – | – | – | – | binds | binds | B5
